Reference: the supplement of paper PMC9170038

system: K4 kissing-loop RNA reporter; assay: apparent KD of K4 kissing-loop reporter; higher = weaker reporter binding; details: Eterna round: R107; input ligand: none
Experimental: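 RNA-MaP round R107: designed RNA switches with theophylline, tryptophan, arginine or FMN aptamers are transcribed on-chip within common flanks. They are titrated with a labelled K4 kissing-loop RNA reporter in RNA-MaP buffer (100 mM Tris pH 7.5, 80 mM KCl, 4 mM MgCl2), without ligand or with the indicated ligand. Median apparent KD per design.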
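Note: bound reporter read as fluorescence of individual clusters on recovered sequencing chips by microscopy, with normalized cluster intensities fitted with a binding model.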

| Sequence | apparent KD of K4 kissing-loop reporter |
| --- | --- |
| UGUCAUUGGUCUGAUACCAGAAGAAAUCUGGAGUGAUGUUCCAAGUCGACAAAAUGUCGCUUCCCUUGGCAGCAGACCGAUGACU [TheoBS 23 #SwitchBubble 13 #StaticStem] | 377 nM |
| GUUACGCAUGGAAGGAGCGCUCUCAUAUUUAAUAACACAGUGAUGUUGUGAAUUUAUAUAAAGCAGGUAGGUCGCCAUGUGUAAC [Ex Arginine B K4 6] | 326 nM |
| GGUAUCUAUACAGAUACCAGUCGUACAGCACCAUUACAGGUUAGUGAUGUUAACCUGUACGACCCUUGGCAGCUGUAUUAUAAUA [#15 K4 Theophylline B Exclusion] | 86.8 nM |
| UGACUACAUAAGGAAUAAUCCUAGUGAUGUUAGGAUAUGCUGAUAAGCAGAAGGAACGGAGAUCGAAGGAUCUCAUAUGUAGUCU [whbob_Ex_FMNA__2th194] | 103 nM |
| GUGCGCGGUGCGGCCGCCACUCGCAUGAGAGUGAUGUUCUCGGGACGGACGGAAGUCCGUCAUGUGAGGACCGGGCAUGGCUGCG [#2 Same State - Tryptophan B Attempt #10 (HarryS)] | 416 nM |
| UACUUAUAUAUCAACUUAAAUUAUUCAGAAGGAGCGUGAUCAUUCACAGGUAGGUCGCUGAACUAGUGAUGUUAGUUUUAAUUUU [JR_Nu_ExcArginiA_Sub023] | 81.3 nM |
| GAGAUAGAGGCGGCCGCCACUAGUGAUGUUAGUGAUGUUAGAUAGAGAAUAUAACAGGGAUUAGAUAGGACCGGGCCAGAUGGAG ['lljullin] | 130 nM |
| AGUAUAGAGUCGGCCGCCACUGGUUUUAUGUGUGUCAAAUCUGGAUCAAAGUGAUGUUUUGAGACUAGGACCGGGACCAUUGUUA [#06 K4 Tryptophan B Exclusion] | 145 nM |
| AGUACAGACACGGCCGCCACUCAGAAGAAGACAGUAGUGAUGUUACUGAUGGUGAGAAUAAUAAAGAGGACCGGGUGUUGUGCAA [#04 K4 Tryptophan B Same State] | 224 nM |
| CCUAUCUCAUACGAUACCAGUGAAUUUAUGUUUAUUAGCAGUGAUGUUGCGUUCCAAGUACACCCUUGGCAGCGUAUGGGAUAGG [Ex Theophylline B K4 24] | 147 nM |
| UAGUCCGAGUGAUGGUCAUCACGUGGCGGGCGAGGACCGGUACGGCCGCCACUCGACUUUGCAGUGAUGUUGCAAACCGGACAAU [Exclusion - Tryptophan A (Freestyle 21)] | 249 nM |
| GUCCACACUGCAGGAUAUGGAGGUAUAGCGAGGGAGUGUGGAAGCACACCUCUGGCAGUGAUGUUGCCAGAAGGGCGGUGCGGCG [Masodionra] | 119 nM |
| GAGAGCCCUGGAGGAUAUGAGUCUAGUGAUGUUAGGCGGUCCAUGCGCGUGGCGCGUUAUGCCCUUUUAGAAGGCCAGGGCUCUC [#2 Exclusion - FMN B Attempt #18 (HarryS)] | 88.5 nM |
| UUCUACGUGCAAGGAUAUCCAUACGCUGCUAAGCGGGUAGCGAUAUAUGGAGUGAUGUUCCAUGUAGGAGAAGGUGCACUGUCCU [Rieser] | 348 nM |
| AAGGUUCGUGGAAGGAGCGCCCGUGCGACUCGUUCACUAAGUGAAGUCCGAGUGAUGUUCGGGCAGGUAGGUCGCCACGGGCAAA [Atonenge] | 152 nM |
| UAAUAAAUUCCAGCUGUAUCACUCUUCGAAGGAGCGGACGAAAGUCCAGGUAGGUCGCGAAGAGUGAUGUUCUUUGCGGCGCUGG [Omei KL Arginine A Exc A v6] | 94.8 nM |
| CCGUGGCCGACGGCCGCCACUCUUACCAUCCAGCGGAGUGAUGUUCCGCCCGAGUGAUGUUCGGAGAGGACCGGGUCUGUUGUAA [Exclusion Tryptophan B GF30] | 108 nM |
| CCAGGAUGAUGAGGAUGAUAAAUUACUGAAGGAGCGCAUAUGGUUGCAGGUAGGUCGCGGUGAAUAAGUAUAGUGAUGUUAUGCC [SSArgA.Y] | 561 nM |
| UUCUAACACACCGAUACCAGAGCCCAGUGAUGUUGGGCCUAGGUCGGAUGCUCACUGACGCUCCCUUGGCAGCGGUGGGCUAACC [Arreisve] | 116 nM |
| AAUACGAAGCAGUGAUGUUGCUUAUGAGAAGGAGCGCACGAAAGUGCAGGUAGGUCGCUCAGCCAAGUGGACGAAAACGUCCACA [whbob_SS_Arginine_A_sa108] | 98.4 nM |
| AGCAGCAAAUCCUAGUGAUGUUAGGAUAUGUAGGAUAUCGGGAUACCGAGAAGGACAGAAGGAGGAGUGAUGUUCCUAAGCUGCA [FmnAX 24 #DoubleAptamer #DoubleK4 #SwitchBubble] | 114 nM |

same assay, conditions: Eterna round: R107; input ligand: theophylline 20 uM

| Sequence | apparent KD of K4 kissing-loop reporter |
| --- | --- |
| UCUGUUUCGAUGGAUACCAGUCGGCGAAUCACAGCUAUUAGCCUAGUGAUGUUAGGAUCGGACCCUUGGCAGCCAAUGGAUGCGG [theeternabot_sameState_KL_Theo_B_14] | 1270 nM |
| AAGGGCGGAACUUCCUCGCCGGAUAGAGAUACCAGCCCAGCAAAGGGCCCUUGGCAGCUCACUGACCUCAGUGAUGUUGAGGUUC [Riesrevere] | 216 nM |
| GUCGGCCGCGCGCAAGCGCGGCCGGCCGAUACCAGCGCGCCGGUGCGCCCUUGGCAGCGGCACCGAGUGAUGUUCGGUCAGACGA [#2 Same State - Theophylline A Attempt #6 (HarryS)] | 113 nM |
| UGCGCUAUGUCCUAAAAUGUCCUCCGGGAUACCAGAGUCUUUUUAUUCCCUUGGCAGCUUGAGUGAUGUUUGAUGCCGUUCUUGU [nnbvmullin] | 355 nM |
| CCGGGCGGCCGAAGGAGCGGGCGGACCCGAGUGAUGUUCGGGUGGACCGUGAGGUCCGGUGCCCAGGUAGGUCGCGGUUCCGUCC [#2 Same State - Arginine B Attempt #6 (HarryS)] | 97.5 nM |
